This is an account of results in PMC2734569, “Functional mapping of the fission yeast DNA polymerase δ B-subunit Cdc1 by site-directed and random pentapeptide insertion mutagenesis” (BMC Molecular Biology, 2009).

Holding throughout (assay): two-hybrid; LexA-Cdc1 bait (pBTM116 or pBTM116BN) with Gal4 activation domain-Cdc27 prey (pGAD2F-Cdc27) in S. cerevisiae CTY10-5d; ONPG liquid culture beta-galactosidase assay, mean of triplicates, as percent of wild-type Cdc1
What all share (conditions): partners not purified

For one assay, the target named is T1, Cdc1-J15 (Schizosaccharomyces pombe, UniProt P87324 1-462, Gln-GlyValProLeuGln-Val).
T1 construct: Cdc1, S. pombe, with a pentapeptide inserted after residue 203; source: yeast two-hybrid fusion, in S. cerevisiae CTY10-5d
T1 sequence (looked up): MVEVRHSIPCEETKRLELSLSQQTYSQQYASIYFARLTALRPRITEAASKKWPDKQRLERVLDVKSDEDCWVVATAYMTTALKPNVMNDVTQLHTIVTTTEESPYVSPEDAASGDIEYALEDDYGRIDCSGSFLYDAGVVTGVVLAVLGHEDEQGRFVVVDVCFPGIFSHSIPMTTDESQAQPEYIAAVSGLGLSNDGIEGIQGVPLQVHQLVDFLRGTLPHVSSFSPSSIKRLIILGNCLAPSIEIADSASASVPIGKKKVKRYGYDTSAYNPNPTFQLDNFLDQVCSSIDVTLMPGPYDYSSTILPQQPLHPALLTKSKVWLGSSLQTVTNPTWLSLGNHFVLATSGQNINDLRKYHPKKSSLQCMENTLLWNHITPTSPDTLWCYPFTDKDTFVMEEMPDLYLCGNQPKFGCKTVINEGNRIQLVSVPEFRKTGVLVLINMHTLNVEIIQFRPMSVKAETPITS

The target of a further assay is T2, Cdc1-A10 (Schizosaccharomyces pombe, UniProt P87324 1-462, Asn328Ala | Pro329Ala).
T2 construct: Cdc1, S. pombe, double point mutant (A5 and A6 combined); source: yeast two-hybrid fusion, in S. cerevisiae CTY10-5d
T2 sequence (looked up): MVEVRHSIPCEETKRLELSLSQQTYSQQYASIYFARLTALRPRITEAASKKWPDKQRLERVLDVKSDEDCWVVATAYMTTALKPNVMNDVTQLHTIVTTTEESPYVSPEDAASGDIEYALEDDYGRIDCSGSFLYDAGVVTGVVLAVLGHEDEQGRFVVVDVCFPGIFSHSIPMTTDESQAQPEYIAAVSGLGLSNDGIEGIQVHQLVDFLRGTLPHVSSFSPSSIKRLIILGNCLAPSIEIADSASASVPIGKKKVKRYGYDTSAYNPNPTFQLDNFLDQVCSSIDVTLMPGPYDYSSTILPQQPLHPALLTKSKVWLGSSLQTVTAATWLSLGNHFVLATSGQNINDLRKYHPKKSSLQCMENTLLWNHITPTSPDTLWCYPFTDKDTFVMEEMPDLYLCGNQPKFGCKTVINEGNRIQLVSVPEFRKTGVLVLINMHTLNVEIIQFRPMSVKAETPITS

In the next assay the target is T3, Cdc1-A7 (Schizosaccharomyces pombe, UniProt P87324 1-462, Gly344Ala).
T3 construct: Cdc1, S. pombe, point mutant; source: yeast two-hybrid fusion, in S. cerevisiae CTY10-5d
T3 sequence (looked up): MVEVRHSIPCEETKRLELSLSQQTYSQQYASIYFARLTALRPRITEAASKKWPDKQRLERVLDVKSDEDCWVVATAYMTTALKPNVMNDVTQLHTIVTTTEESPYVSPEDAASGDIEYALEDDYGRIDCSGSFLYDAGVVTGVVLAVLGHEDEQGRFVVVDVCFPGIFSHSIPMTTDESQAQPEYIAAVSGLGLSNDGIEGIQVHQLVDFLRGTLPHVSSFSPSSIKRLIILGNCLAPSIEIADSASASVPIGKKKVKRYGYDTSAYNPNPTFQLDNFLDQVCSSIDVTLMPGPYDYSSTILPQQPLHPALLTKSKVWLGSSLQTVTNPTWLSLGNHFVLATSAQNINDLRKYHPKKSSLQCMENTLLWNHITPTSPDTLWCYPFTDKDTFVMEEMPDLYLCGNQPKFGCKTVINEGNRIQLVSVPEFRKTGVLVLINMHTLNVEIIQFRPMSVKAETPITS

The target of a further assay is T4, Cdc1-J7 (Schizosaccharomyces pombe, UniProt P87324 1-462, Met-GlyValProLeuMet-Glu).
T4 construct: Cdc1, S. pombe, with a pentapeptide inserted after residue 393; source: yeast two-hybrid fusion, in S. cerevisiae CTY10-5d
T4 sequence (looked up): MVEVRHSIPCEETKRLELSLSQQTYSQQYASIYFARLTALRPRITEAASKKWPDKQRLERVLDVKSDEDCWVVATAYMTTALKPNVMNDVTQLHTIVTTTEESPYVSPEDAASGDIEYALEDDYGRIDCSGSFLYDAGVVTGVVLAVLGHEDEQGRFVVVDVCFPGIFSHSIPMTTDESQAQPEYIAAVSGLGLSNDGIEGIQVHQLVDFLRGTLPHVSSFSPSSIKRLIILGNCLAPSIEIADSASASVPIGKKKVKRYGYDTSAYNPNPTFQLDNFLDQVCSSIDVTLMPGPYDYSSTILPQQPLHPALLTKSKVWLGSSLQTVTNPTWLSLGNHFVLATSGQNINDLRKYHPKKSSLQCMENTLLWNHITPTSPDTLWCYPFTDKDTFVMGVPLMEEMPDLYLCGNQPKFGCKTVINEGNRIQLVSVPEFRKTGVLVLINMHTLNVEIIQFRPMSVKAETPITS

B1: Cdc27 (fission yeast DNA polymerase delta C-subunit) (natural protein, Schizosaccharomyces pombe, UniProt P30261 1-372, looked up)
chain: MEEWRNFLDIKVINESSLVTVDNLSLQLDISSEKAQEYLNMFYQGNDFLYPIYLIHGQPIDDEINLEIDEESQPISNFPVLQYILCDKSSLQEKQSRLKSGYKTVIFALSSAPLSDFDELLPAVYEIREKDVLYKKEDADKYGFIFNENSVPRVLKKAPSTHSPQLSVPSKTSTIDKTDTRSTEKTKGKDIFSNARNQKGNSSRKNKKAPLENHKEKEPLLPKEEKLSEQAKRERDDLKNIMQLEDESVSTTSVHDSEDDNLDSNNFQLEIGTEAKSAAPDEPQEIIKSVSGGKRRGKRKVKKYATTKDEEGFLVTKEEEVWESFSEDENISTGTSNVVRNKPTTVNIATKKKNTAQSKPQQKSIMSFFGKK
notes: DNA polymerase delta C-subunit Cdc27, S. pombe; prey plasmid pGAD2F-Cdc27; also called pGAD2F-Cdc27; source: yeast two-hybrid fusion, in S. cerevisiae CTY10-5d
For B1, the “two-hybrid beta-galactosidase activity, % of wild-type Cdc1” value in the assay with Cdc1-J15 was 78%; with Cdc1-A10, 72%; in the assay with Cdc1-A7 it was below 1%; with Cdc1-J7 it was 19%.
